# Experiments:
# Test in all cases: crystal structure
# [1] = biological target: NITR10 (D50N) V region protein (channel catfish (Ictalurus punctatus))
# [2] = biological target: NITR10 V region protein (novel immune-type receptor 10, Ig V domain) (channel catfish (Ictalurus punctatus))
# [3] = biological target: NITR11 (N50D) V region protein (channel catfish (Ictalurus punctatus))
# [4] = biological target: NITR11 V domain and membrane proximal stalk region, disulfide-linked homodimer (channel catfish (Ictalurus punctatus))
# [5] = biological target: NITR11 V region protein (novel immune-type receptor 11, Ig V domain) (channel catfish (Ictalurus punctatus))
substance,measurement,setting,value
NITR10 (D50N) V region protein (domain or fragment),stoichiometry N,[1],2
"NITR10 V region protein (novel immune-type receptor 10, Ig V domain) (domain or fragment)",stoichiometry N,[2],2
NITR11 (N50D) V region protein (domain or fragment),stoichiometry N,[3],2
"NITR11 V domain and membrane proximal stalk region, disulfide-linked homodimer (domain or fragment)",stoichiometry N,[4],2
"NITR11 V region protein (novel immune-type receptor 11, Ig V domain) (domain or fragment)",stoichiometry N,[5],2
